These results are taken from paper PMC3789969, “The Allosteric Role of the AAA^+ Domain of ChlD Protein from the Magnesium Chelatase of Synechocystis Species PCC 6803” (The Journal of Biological Chemistry, 2013).

Type in all cases: biochemical, Synechocystis sp. PCC 6803
Substrate in series [1]: Nc1ncnc2c1ncn2[C@@H]1O[C@H](COP(=O)(O)OP(=O)(O)OP(=O)(O)O)[C@@H](O)[C@H]1O
Kind of series: continuous fluorometric MgDIX formation assay, Hill fit. The settings on record: 10 mM free Mg2+, 8 μM DIX, pH 7.7, 34 °C.

Substrate in series [2]: Nc1ncnc2c1ncn2[C@@H]1O[C@H](COP(=O)(O)OP(=O)(O)OP(=O)(O)O)[C@@H](O)[C@H]1O
Kind of series: continuous fluorometric MgDIX formation assay, Michaelis-Menten fit. As to conditions: 10 mM free Mg2+, 8 μM DIX, pH 7.7, 34 °C, I 0.1, non-cooperative.

Substrate in series [3]: CC1=C(CCC(=O)O)c2cc3nc(cc4[nH]c(cc4C)cc4[nH]c(cc1n2)cc4C)C(C)=C3CCC(=O)O
Described as above. As to conditions: 5 mM ATP, Mg2+, pH 7.7, 34 °C, I 0.1.

B1: magnesium chelatase (ChlI, His6-ChlD, His6-ChlH); nucleotide sites (Synechocystis sp. PCC 6803 substr. Kazusa) (protein)
chain 1: MTATLAAPSKTRRVVFPFTAIVGQDEMKLALLLNVIDPKIGGVMIMGDRGTGKSTTIRALADLLPEIEVVANDPFNSSPSDPEMMSEEVRIRVDSQEPLSIVKKKVTMVDLPLGATEDRVCGTIDIEKALSEGVKAFEPGLLAKANRGILYVDEVNLLDDHLVDVLLDSAAGGWNTVEREGISIRHPARFVLVGSGNPEEGELRPQLLDRFGMHAEIRTVREPELRVKIVEQRTEFDQNPHPFCDQYQTEQEALQAKIVNAQNLLPQVTIDYDYRVKVSEVCAELDVDGLRGDIVTNRAAKALAAFEGRTEVTVDDISRVIVLCLRHRLRKDPLESIDSGSKVEKVFKRVFGVVDEA
chain 2: not shown
notes: recombinant from E. coli; His6 tags on ChlD and ChlH, ChlI untagged; ATPase sites in ChlI, allosteric nucleotide site proposed in ChlD; with Magnesium-chelatase subunit ChlH
Regarding B1, in series [1] (I 0.1, Hill n 2.0 ± 0.2), the K0.5 is on record as 0.43 ± 0.02 mM and the catalytic constant (kcat) came to 0.405 ± 0.014 min⁻¹.

B2: magnesium chelatase (ChlI, His6-ChlD, His6-ChlH); nucleotide sites (Synechocystis sp. PCC 6803 substr. Kazusa; P72772:E152Q) (protein)
chain 1: MTATLAAPSKTRRVVFPFTAIVGQDEMKLALLLNVIDPKIGGVMIMGDRGTGKSTTIRALADLLPEIEVVANDPFNSSPSDPEMMSEEVRIRVDSQEPLSIVKKKVTMVDLPLGATEDRVCGTIDIEKALSEGVKAFEPGLLAKANRGILYVDEVNLLDDHLVDVLLDSAAGGWNTVEREGISIRHPARFVLVGSGNPEEGELRPQLLDRFGMHAEIRTVREPELRVKIVEQRTEFDQNPHPFCDQYQTEQEALQAKIVNAQNLLPQVTIDYDYRVKVSEVCAELDVDGLRGDIVTNRAAKALAAFEGRTEVTVDDISRVIVLCLRHRLRKDPLESIDSGSKVEKVFKRVFGVVDEA
chain 2: not shown
notes: as for B1
B2: in series [1] (I 0.1, Hill n 1.8 ± 0.17), the K0.5 worked out at 0.72 ± 0.04 mM and the kcat was 0.108 ± 0.004 min⁻¹.

B3: magnesium chelatase (ChlI, His6-ChlD, His6-ChlH); nucleotide sites (Synechocystis sp. PCC 6803 substr. Kazusa; P72772:R289A) (protein)
chain 1: MTATLAAPSKTRRVVFPFTAIVGQDEMKLALLLNVIDPKIGGVMIMGDRGTGKSTTIRALADLLPEIEVVANDPFNSSPSDPEMMSEEVRIRVDSQEPLSIVKKKVTMVDLPLGATEDRVCGTIDIEKALSEGVKAFEPGLLAKANRGILYVDEVNLLDDHLVDVLLDSAAGGWNTVEREGISIRHPARFVLVGSGNPEEGELRPQLLDRFGMHAEIRTVREPELRVKIVEQRTEFDQNPHPFCDQYQTEQEALQAKIVNAQNLLPQVTIDYDYRVKVSEVCAELDVDGLRGDIVTNRAAKALAAFEGRTEVTVDDISRVIVLCLRHRLRKDPLESIDSGSKVEKVFKRVFGVVDEA
chain 2: not shown
notes: as for B1
As to B3, in series [2], the Km is listed as 1.79 ± 0.32 mM and the catalytic constant (kcat) amounted to 0.054 ± 0.005 min⁻¹.

B4: magnesium chelatase (ChlI, His6-ChlD, His6-ChlH); nucleotide sites (Synechocystis sp. PCC 6803 substr. Kazusa; P72772:R208A) (protein)
chain 1: MTATLAAPSKTRRVVFPFTAIVGQDEMKLALLLNVIDPKIGGVMIMGDRGTGKSTTIRALADLLPEIEVVANDPFNSSPSDPEMMSEEVRIRVDSQEPLSIVKKKVTMVDLPLGATEDRVCGTIDIEKALSEGVKAFEPGLLAKANRGILYVDEVNLLDDHLVDVLLDSAAGGWNTVEREGISIRHPARFVLVGSGNPEEGELRPQLLDRFGMHAEIRTVREPELRVKIVEQRTEFDQNPHPFCDQYQTEQEALQAKIVNAQNLLPQVTIDYDYRVKVSEVCAELDVDGLRGDIVTNRAAKALAAFEGRTEVTVDDISRVIVLCLRHRLRKDPLESIDSGSKVEKVFKRVFGVVDEA
chain 2: not shown
notes: as for B1
As to B4, in series [1] (I 0.1, Hill n 2.0 ± 0.10), the K0.5 is recorded as 0.78 ± 0.02 mM and the kcat was 0.263 ± 0.005 min⁻¹.

B5: magnesium chelatase (ChlI, His6-ChlD, His6-ChlH); porphyrin site (Synechocystis sp. PCC 6803 substr. Kazusa) (protein)
chain: MFTNVKSTIRRVDPEALNGRQLLKVVYVVLESQYQSALSAAVRNINRTNSSLAIQLTGYLIEELRDPENYANFKHDVSEANLFIASLIFIEDLADKVVEAVTPYRDNLDAAIVFPSMPQVMRLNKMGSFSMAQLGQSKSAIAQFMKKRKENSSGAGFQDAMLKLLRTLPTVLKYLPVEKAQDARNFMLSFQYWLGGSQENLENFLLMLTDKYVYPDLGLDKLVNYQEPVVYPDMGIWHPLSMQMFENVKDYLEWYNQRPDISEDLKDPLAPCIGLIMQRTHLVTGDDAHYVGMVQELEAMGARVICVFSGGLDFSKPVNEYFWDKSVNGVEPLPIVDAVVSLTGFALVGGPARQDHPRAIESLKKLNRPYMCALPLVFQTTEEWEASDLGLHPIQVALQIAIPELDGAIEPIILSGRDGSTGRAIALQDRLEAIAQRAMKWANLRKKPKLDKKVAITVFSFPPDKGNVGTAAYLDVFGSIYEVMKGLQGNGYDVQDLPGSAKELMEAVIHDAQAQYNSPELNIAHRMSVEQYERLTPYSVRLEENWGKPPGHLNSDGQNLLIYGKEFGNVFIGVQPTFGYEGDPMRLLFSRSASPHHGFAAYYTYLNHIWKADAVLHFGTHGSLEFMPGKQMGMSGECYPDNLIGTIPNLYYYAANNPSEATIAKRRGYASTISYLTPPAENAGLYKGLQELNELIGSYQTLKDSGRGIQIVNTIMDQARICNLDQDVNLPDINAEEMDQGQRDTIVGSVYRKLMEIESRLLPCGLHVIGQPPSAEEAIATLVNIASLDREDEGIWALPTLIAESIGRNMEEIYRNSDKGILADVELLQDITLATRAAVAALVQEQINADGRVSFVSKLNFFKIGKKAPWVKSLCDSGYPNVNEEKLKPLFEYLEFCLEQVCADNEFGGLLQALEGEYVLPGPGGDPIRNPNVLPTGKNIHALDPQSIPTLAAVQSAKVVVDRLLERQRAENGGNYPETIASVLWGTDNIKTYGESLAQIMWMVGAKPVPDALGRVNKIELVPLEELGRPRIDVVVNCSGVFRDLFINQMNLLDQAVKLAAEADEPLEMNFVRKHALEQAEEMGIGVREAATRIFSNASGSYSSNVNLAVENSSWEDESELQEMYLKRKSFAFNSDNPGMMDQNRDMFERALKTADATFQNLDSSEISLTDVSHYFDSDPTKLISTLRDDGKAPAAYIADTTTANAQVRTLSETVRLDARTKLLNPKWYEGMLSHGYEGVRELSKRLVNTMGWSATAGAVDNWVYEDANSTFIKDEEMCKRLMDLNPNSFRRMVSTLLEVNGRGYWETSDENLERLQELYQEVEDRIEGVE
notes: recombinant from E. coli; His6 tags on ChlD and ChlH; copies are assay ratio; with Magnesium-chelatase subunit ChlI; Magnesium-chelatase subunit ChlD
As to B5, in series [3], the Michaelis constant (Km) was found to be 5.74 ± 0.77 µM and the kcat is 1.13 ± 0.06 min⁻¹.
